Assay results: patent US20230227790

Target: component B (compB) protein (I53-50B)
Experiment: SEC-HPLC after sub-surface pipette addition and orbital agitation overnight

B1: component A (compA) protein (I53-50A) fused to RSV antigen (protein)
chain: MEELFKKHKIVAVLRANSVEEAIEKAVAVFAGGVHLIEITFTVPDADTVIKALSVLKEKGAIIGAGTVTSVEQCRKAVESGAEFIVSPHLDEEISQFCKEKGVFYMPGVMTPTELVKAMKLGHTILKLFPGEVVGPQFVKAMKGPFPNVKFVPTGGVNLDNVCEWFKAGVLAVGVGSALVKGTPDEVREKAKAFVEKIRGCTE
- VLP assembly peak (% by HPLC): formation of the VLP assembly (50%)
